A short description of this data set: soluble fraction after stress (log2 fold change); higher = more stays soluble; pooled small domains, quantitative proteomics. The following applies: stress: 50 degC. The method, boiled down:
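The measure of aggregation propensity here is the base-two logarithm of the fold change in the soluble amount of each protein after stress. A higher value means more of that protein stays in solution. Stress was applied at 50°C to pooled libraries of small protein domains, read out by high-throughput quantitative proteomics.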
Turning to “HMEKKGTVVIATVKGDIHDIGKNIVKVLLENYGFDVIDLGKDVPPEAVVEAVQQSGARLVGLSALM”, the “soluble fraction (log2)” value was -0.594.

Consider “HMKIPYGELIKLLNAAAPKLQDAQGWMDMEAAGQFIGSRWSYLDYGFKDWPDSFKTVHGLEIQGQRMRLA”, for which the “soluble fraction (log2)” value was -0.452.

“HMDNPKGNLQEAVQAKGNEPIEYRVLNVDGPDHAREFKIAVFIGGKRKGTGVGNSKKKAEEIAAEKAFKRM”: the “soluble fraction (log2)” value came to 0.127. To “HMNELIGVEQLQDLREAIADHGFAEQRVLNWLYQATKGQVSRLEQLPLPMLTTLHKKLGQWADAEAAASSA” belongs -0.0602; to “HMSLSDDIAQTLRQLGFDRDVSETLANDVLPAMPTRQDVIDLLGTLGIEKHVAADFANFVVLN”, -0.723; to “HMKLVAAGYHQNRLLVLLGIQAEELQAKRLLASFDRFRGREATPKPPIHDSARRWLRDTYHHVMNQVPVEL”, -1.07. To “HMAETLLWADAAQEGLNRIVAAQPILVRISAAKRLRDASEQAAKAAGVSTVEIGHVQHASESLQFGDA” belongs 0.165; to “HMQDPRITRTRGLILQAFDALLVEKGFHALSVQAIAGRAGINRATFYAHFADKYALLDTSIQE”, 0.268; to “HMKTFSTRLIALREAIGVNQSELARRVGVTPQAVQKWESGANGPRGKRLEKLASELRSTVGYLVSGEGDG”, -0.446. Regarding “HMGYTLDVAHGVTEDMNFSEAFATAREEVGPGGIFYWHGKPYGTYYENEWNAMDEEDKAEYWDAVGRTTA”, the “soluble fraction (log2)” value was -0.149. To “HMSTSLIEFTIDRNNSIANKMIMDANIPEDILVVMIKRNGDVFVPNGSTKILPGDILVLSGNKLKY” belongs -0.534; to “HMDRSVTAAELRLAAMDLLARREHGSQELEAKLSRRFHKRHYDVELLRSVIEQLTVEGLLSDERFAVS”, -0.154. Consider “HMGNIADARRDASYVFLIGEWAKSSNLTEKKLAGLIQSNHLDIKYGITVTDVIADIRKYKNDPTYNPF”, for which the “soluble fraction (log2)” value was -0.305. In the case of “HMAGTRRFELVEGSSSKFWEVTVADGSYTVTYGRIGTAGGSKTTESATAEADAEKLVREKLKKGYQEAGAA” it was 0.245; in that of “HMGESVQVPSYVGMGFREAARKARARDFGVAVSDSIYVPGKPPGEIIAQDPKAESRVKEGRTIYFTVAK”, 0.0425; in that of “HMPNIQLARNLKYLRLAYGLTQDDLGAFLNISRQAYSNYENLKRSPDLDSLIRLASLYHLSLDDLVSR”, -3.09. On to “HMQALDNNDALEEIIKKVITENPSQVTEFRNGKDSLMNFLVGKVMAASGGKANPKTLPETIEKIIK”, for which the “soluble fraction (log2)” value stood at 0.12. Take “HMSSPRAIYSAIQKAVGEDMILYREDVQIILDKLDADLLVDDILEKMELDGTLVRQRDGTWLLL”: the “soluble fraction (log2)” value was -0.658. Regarding “HMHWDIAQADAKQEVMDSSDDKEAIERIQANMFKDPKDHDQEYANKILNDMIDEIKEKGLEAMQHKFAQE”, the “soluble fraction (log2)” value is -0.379. In the case of “HMTNNDIIRRVRYLFNFSDKQVIELFKLANETVSIEHVSGWLKKEEDPTLIEISDRDLAVFLNGLII” it was 0.237; in that of “HMTTKEEAAYQAIRSAIIDGELKPGQSVTIRDLASRFDLGRTPITDAMKHLALDGWLETTTGVGTRV”, -0.106.

As to “HMAVRNTKQKQLVLSLLKNSGRPMTAGEIYRLAVQQYPNIAKSTVYRNLENLVSRGEVSQGMHQNGESFYS”, the “soluble fraction (log2)” value was -0.299. For the sequence “HMDSEKVLTNLKEELVLQLSNIEPYGYVPSQYWYSKVQRVQSVQELGKYVDGDLEAFVMKYAEDWESQK”, the “soluble fraction (log2)” value is -0.191. Take “HMTGYVMIRVDGLSLEKFLNMAAEAGVRVSDVRRASYTVLYAVVSPRDLKKLQSVAPEKYTVTVR”: the “soluble fraction (log2)” value was -0.664. To “HMGTVISVDKARSIALAKVPGASANDIRIHLDRDDGRQIYEGEIYYNRMEYEFEIDASTGTIIEWSAEHW” belongs -1.73; to “HMIITLNIENLKRARENAGLTQTQAAQKIGVSDGTYKNYEQGKREPNGDKIVTIANAFGVTTDYLLGR”, -0.334. With “HMNPSRPASKEELLGLFEHLERALDAVTFFRPAEKKPVVVQTLRAMLTKASFTEQDIRTMRGVIAALEN”, the “soluble fraction (log2)” value is -1.5. In the case of “HMKDLTIRQQQFLNYIKDHLSLTGFPPTRSDIANEMGFKSPNAAEDHLRALARKGAIEIVPGTSRGIRLP”, the “soluble fraction (log2)” value is -0.24.

Consider “HMDGQGIRSITPEYYLSDSATKMPDASSSGWKSVPDDYIDKHYYWVRSKILWDDGTYTTTTPVL”, for which the “soluble fraction (log2)” value was -0.364. To “HMDLPDTLSMPNALKVLEDNGFPTSKAKLYKMTSQEQIPFMKYGNKLVFSRKALIEWAHKQLV” belongs -1.1; to “HMNSNQESFENWLSANSWYNKDRAMRVFADSLGQELRNSGVSFEKALTQISAEVRKEFSHKFQ”, -0.163.

With “HMAEPYDEDKVMEHLYIKGKDVVIAHLKHLKEHNEHVWLKKGVEWMQKNQDRLGFDMMEVIYVVHNH”, the “soluble fraction (log2)” value was -0.0166. In the case of “HMWMEKEELLWNDIIRGGVERGELREDTDIQEAAALFRQVFIGLAYQMSFSDGLDVGILRKRFHHIYGLLT” it was 0.0187; in that of “HMFMPGTIIKQFRELRNYSQDYVSRKMGISQNAYSKIENNITQLTVTHVKQLSSILDVPIVELLR”, -3.32. In the case of “HMSKQIEVPDVTDMTVSDAIDVLQDKGFVVSDEQKEVASSEIEEGRVVRTSPAVGSKRKDGTVVTLYVSI” it was 0.045; in that of “HMGVDIAEHDGQPAVSIRKGAAESVAQWVKDQGGTFPQEVEMTVQNVARAGGTPLVVARGRDVLGVIYLKD”, 0.0501. For “HMEGVNLTVQEAKQMAAIIAPLLKQGQSPYQIVTNHPELGISEKTLYNYIENDVFHEIAGITVMDL”, the “soluble fraction (log2)” value is -0.365. In the case of “HMIDVGSKIRSLRKSKNISISTLAKNSDLSTGLISQIERNMVVPSIVAMWKISKALDINIGYFFE” it was -2.42; in that of “HMTIRPEDVELVPAEDGYMQGDVVSNIFKGVHYELEVKANGYDWMVHTTKYVEVGSHVGIKVIPFNIQV”, -0.0208. For the sequence “HMSFFNGNQMKILRKKLQLNQEEMGEKLGIKKSYVSQLENNRKEITEEIDQILQELEQEYQDKM”, the “soluble fraction (log2)” value is -0.323.

In the case of “HMFDTVKIGKRIAELRKKRDMTQFELADRLGISYQAVSNWERGNSMPDIAKLPELAEIFGVTVDEILG”, the “soluble fraction (log2)” value came to 0.161.

“HMQQEPNFYIVDGNTNQIVDRYYAPDSNVAHQYLGQWRQQHDPQETGNYRYGRLSSETEERYRNLAA”: the “soluble fraction (log2)” value amounted to 0.236. In the case of “HMDDTRLLSEIGLSQRVLNALRARGIERVGQVLAMRPDQLLGIRNFGPRALQELRERLQENGYTEGPLFSG” it was 0.309; in that of “HMIIIMKKSATNSEVRKVIERAEKEGLTVQVNQLEKQQVLGLVGDTRLIQDVAFLRYEGVENVERI”, -0.776; in that of “HMTDAEQHEALLFKQVVDGLPQTLRDTFVLSRHAGMTYAEISAHTGTPIKTVESRMAKALELIAQRMR”, -0.67. In the case of “HMTMQTAEQESRLEQKLIDLSVGIDRFEGYSRPHGQLIASIADRIGTRLGMAAHDRFYMQQAAL”, the “soluble fraction (log2)” value was determined as 0.107. “HMKEFSFNGGKVIMNYEADRIQIKHDSRPNQEVITLMKRNGFKWSPTNQAWQRQITGNAIYVTKNLLKS”: the “soluble fraction (log2)” value is -1.35. For “HMTETELYDEVNRLIGLHLSERDRMILIMRDRDEFEIDAIAARTGLSEGNIRLILSRARRTVREAYRNNI”, the “soluble fraction (log2)” value is -3.74. To “HMGAVPKNYFPAVEKGLQDSVQKGLLAGYPVVGVKAILYDGSYHPVDSSEMAFKTATIQAFKKGFMEA” belongs 0.2; to “HMGKELTVPDVVGQNYVSAQEKLIAGGFQVEVADSVYDSRYGRGVVVDQNPHKDTRVKPGRLIYVTVNA”, -0.0999; to “HMFPELSEEAKVIVDALSKENDQQLNVLIANTGMAVGTMQAKLFELEMQGVVKPLAGSVYHLM”, -0.0727. Take “HMLSNLYAVLGVGRRATPDEITAAFDAWNARADAGEPIDDPLWERVRYAWDVLSSPSRRDLYDSLVDDATG”: the “soluble fraction (log2)” value was -1.71.

Regarding “HMSNGEWQQGSDGRWWYKFSDGTYPKNKVETIGGKKYGFDSEGWMLANTTKEFSGTTYSFGADGVATS”, the “soluble fraction (log2)” value was 0.158. In the case of “HMEKSLKELAQGVGQKVLTSGRPYHFDPMSAMERRVVHMTLMEMDGLRTESEGEGRFRHVVVFPA” it was -0.184. In the case of “HMNSVSARRSAAITAISTGRIHSQEDLVQALKKAGYPVTQATASRDIEEIGAVRIRNQKGEMVYAIS” it was 0.264; in that of “HMSFSSLSNDILSEIQKDNNITYDELSEKLQKDRATIYRNMKKLVENGLLKRVGGRKSGHWEIIE”, 0.189. In the case of “HMGNKKLVLKLSKKLIKIPSFLNIYSVKLTKNGRELEINLDKSQNEAIDIINLIKKNNISFLEFDIKKR” it was -0.267; in that of “HMPVLDETVPAALDGERIDRVVALLADVSRNRAGIAIAAGSVRLDGAVVTQRSRKVRADEELVVDGLER”, -0.015. Turning to “HMKSTELSIIEALRVLGLKHGASQDSIKKSYRRLVKQHHPDLGGSADSFRKVNEAYQLLIMN”, the “soluble fraction (log2)” value is -0.425.

Regarding “HMTSVRVPVKKEIWFWAIKESQRDLNEILARFPKMDKWINQEENPTFNQLEKVAKFLRVPFGYMFLDKPPK”, the “soluble fraction (log2)” value was -0.931. To “HMGPRKAGSEATRQKILDAAEILFAERGFHSVSVRDITTEAGVDVALINYHFGSKQLLFETVFMRR” belongs -0.331.

As to “HMEALGLSPRQVDVLRLLVEGRSNKMIMRELELSESTVKTHLQAIFRRLGVSSRTQAVVAAARLGL”, the “soluble fraction (log2)” value is -1.25. In the case of “HMSKKIVLPAAITVKKFSETLDMPLGTVISELMKNGILATINERIDFETASIIAQDLGYEVSEEV” it was 0.173; in that of “HMNVPFGFDEVNGKLVKNEEEQAIISEIKSLKNKGLSLRKIAEALNGRGIATKNGKAWTAVQIQRIA”, -0.0386; in that of “HMKKLTGVQKAAILMIALGPDISSSIIKRLPENMVERITYEIANMTKITAQQRNDILKEFMDMTVAQ”, -1.02. On to “HMNVDSLVGSEARVTAEIDNRKETGTAMVNGQEWTARAESDEEIYPVGTIVEIRKIQGVKLIVSTH”, for which the “soluble fraction (log2)” value is -0.162.

For the sequence “HMSDNLSASERKALSHMEGMESVRSSEVADLLGMSQRGAQKLLNRLVDKGLASSFGANRNRRYSVE”, the “soluble fraction (log2)” value is 0.306. In the case of “HMVLVEEYDTKDSASTFKIGYYARYNTKYGTPSKVGSYADNQRSGIWTFYTDSLKTYFKYNYSTGLIL” it was 0.115; in that of “HMKIAPRTAENQQLRKMILEIYTTSKKRVGPAKVRRMLLRDYGISISIGRVYRLMSTMNLPKMS”, -0.258.

Values taken from the domain aggregation screens of Martell et al. (2025).
